Reference: patent publication US20050158323A1, “Methods of killing tumor cells by targeting internal antigens exposed on apoptotic tumor cells” (Vaccinex, Inc., priority 2003, published 2005)

Assays:
[1] = Maximum Tolerated Dose of chemotherapy in xenograft models (Table 6); details: mouse, in vivo, intravenous; nude mice; MTD confirmed by present inventors
Description: Because of concerns regarding cumulative dose-limiting bone marrow toxicity when combining chemotherapy and radioimmunotherapy, it is necessary to determine the Maximum Tolerated Dose (MTD) of combination therapy and, where toxicity of the two therapeutic agents is additive, adopt strategies that will permit administration of both toxic agents. MTD is established by regulatory criteria related to the time required for platelet and white cell recovery in peripheral circulation. Such standards are familiar to those skilled in the art. In the case of murine models, an often employed surrogate definition of MTD is the maximum dose that results in an average of less than 20% weight loss or less than 10% mortality. Currently established MTD for the most common chemotherapeutic agents employed in standard clinical protocols or in animal models are shown in Tables 6 to 9, below.

21MT1 tumor cells = assay: Taxol induced apoptosis and C35 exposure, annexin V/PI flow cytometry; type: cell-based, human; details: 0.5 uM, 24 hours
Description: 24 hours following treatment with 0.5 uM Taxol™, 21MT1 tumor cells were stained with annexin V-FITC, propidium iodide, and with either 100 ng anti-C35 antibody 1F2 (dark line) or isotype control (grey fill) antibody. Both antibodies were directly conjugated to Alexa-647. Histograms were gated on the cells undergoing apoptosis (annexinV positive/PI negative).
Antibodies were pre-incubated with PAB buffer (FIG. 3A), 100-fold molar excess recombinant C35 protein (FIG. 3B), or 100-fold molar excess β-galactosidase protein (FIG. 3C).

[2] = nude mice; non-toxic dose at indicated schedule; cited from earlier work
[3] = molecular target: T1, C35 on surface membrane of 21MT1 breast tumor cells (Homo sapiens, UniProt Q9BRT3); assay: C35 surface staining of breast tumor cells after radiation induced apoptosis (flow cytometry); type: cell-based; details: 50 ng Alexa 647 conjugated antibody
T1 construct: 21MT1, derived from breast carcinoma, naturally expresses high levels of C35; endogenous in cells; host or cells: 21MT1 breast tumor cells
T1 sequence (Q9BRT3 1-115): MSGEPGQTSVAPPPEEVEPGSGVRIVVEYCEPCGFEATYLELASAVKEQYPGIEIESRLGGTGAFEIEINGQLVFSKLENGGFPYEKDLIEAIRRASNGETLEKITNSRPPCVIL
Description: (§1) A line of continuously growing breast tumor cells that express the C35 tumor antigen was either irradiated with 300 Gy or left untreated. After continued in vitro culture for several days to allow apoptosis to develop, cells were harvested, washed and stained with 50 ng of 1F2 monoclonal anti-C35 antibody or a mouse IgG antibody control each conjugated to the fluorescent dye Alexa 647. Following 50 minutes incubation at 25C, cells were stained with Annexin V and propidium iodide (PI) using a standard commercial kit (Pharmingen). Cells were analyzed for staining with Annexin V, propidium iodide and Alexa 647 by flow cytometry employing standard protocols.

[4] = molecular target: T2, recombinant human C35 (rhC35) (Homo sapiens, UniProt Q9BRT3); assay: Epitope localization by Western blot of Lys-C digested rhC35; type: binding; details: native C35 sequence numbering; 1 μg/ml antibody
T2 construct: made in house; host or cells: E. coli
T2 sequence (Q9BRT3 1-115): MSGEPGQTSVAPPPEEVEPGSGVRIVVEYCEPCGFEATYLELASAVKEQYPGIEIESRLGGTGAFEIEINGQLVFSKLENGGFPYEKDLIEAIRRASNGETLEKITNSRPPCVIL
Description: (§2) To localize the epitope specificity of 1B3 and 1F2 antibodies, recombinant human C35 (rhC35) synthesized with a 6× His tag in E. coli was digested with Lys-C endoproteinase. This enzyme cuts after lysine (K) residues in the protein sequence. […] The full sequence of rhC35, including the amino terminal 6× His tag addition is shown. Amino acid positions are numbered relative to the amino terminal methionine (M) of the native human sequence. Note that digestion at the first and third lysine followed by negatively charged residues is inefficient and some longer combination fragments may be generated. Lys-C endoproteinase was added to purified rhC35 at a […] weight ratio and incubated for 18 hours at 37° C. in 25 mM Tris, pH 8.0. The digest was ethanol precipitated and resolubilized in reducing Tricine sample buffer. After heating 5 minutes at 100° C., samples were separated by electrophoresis on a 16% Tricine gel (Invitrogen). Peptides were transferred to PVDF membranes and the blots depicted in FIG. 10 were either stained with Coomassie blue (lanes 1-3 of both left and right panels) to detect all peptides or processed with one of the following: 1 μg/ml of the murine 1F2 anti-C35 antibody followed by alkaline phosphatase conjugated goat anti-mouse antibody (lane 4 of left panel); 1 μg/ml of the 1B3 anti-C35 immunoglobulin variable regions linked to human constant regions (MAb11) followed by alkaline phosphatase conjugated goat anti-human antibody (lane 5 of left panel); or anti-6× His tag mouse antibody (Amersham) followed by alkaline phosphatase conjugated goat anti-mouse antibody (lane 4 and 5 of right panel). BCIP/NBT substrate was added and developed to detect the secondary reagents. Molecular weight markers are indicated in the flanking lanes of both panels.
(§3) In FIG. 10, the indicated band A migrates at the position of undigested rhC35. Note that band B stains with 1F2 but not MAb11 (1B3) anti-C35 antibody while band C stains with neither 1F2 nor MAb11 (1B3) antibody. Since bands B and C both do stain with anti-6× His tag antibody to the 6× His tag at the amino terminus of rhC35, it may be concluded that both fragments lack C-terminal peptide fragments. […] This epitope is not required for staining with 1F2.

[5] = molecular target: T3, recombinant human C35 (rhC35) (Homo sapiens, UniProt Q9BRT3); assay: as above; type: binding; details: Western blot, 1 μg/ml antibody
T3 construct: made in house; host or cells: E. coli
T3 sequence (Q9BRT3 1-52): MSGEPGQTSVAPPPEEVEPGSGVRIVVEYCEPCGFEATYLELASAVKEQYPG
Description: as §2, §3

[6] = molecular target: T4, recombinant human C35 (rhC35) (Homo sapiens, UniProt Q9BRT3); assay: as above; type: binding; details: Western blot, 1 μg/ml antibody; remark: listed apart in the source
T4 construct: made in house; host or cells: E. coli
T4 sequence (Q9BRT3 1-104): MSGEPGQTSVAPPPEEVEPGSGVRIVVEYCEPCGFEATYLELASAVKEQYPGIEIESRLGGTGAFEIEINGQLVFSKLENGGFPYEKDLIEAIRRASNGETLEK
Description: as §2, §3

[7] = molecular target: T5, C35 on surface membrane of breast tumor cells that express the C35 tumor antigen (Homo sapiens, UniProt Q9BRT3); assay: C35 surface staining of breast tumor cells after mitomycin C induced apoptosis (flow cytometry); type: cell-based; details: 50 ng Alexa 647 conjugated antibody
T5 construct: A line of continuously growing breast tumor cells that express the C35 tumor antigen; endogenous in cells
T5 sequence (Q9BRT3 1-115): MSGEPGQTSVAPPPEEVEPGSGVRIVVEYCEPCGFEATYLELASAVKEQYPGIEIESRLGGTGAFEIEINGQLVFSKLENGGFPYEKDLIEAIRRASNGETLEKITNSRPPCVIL
Description: as §1, with “treated” for “irradiated”, “6 ug/ml mitomycin C” for “300 Gy”, “48 hours” for “several days”

[8] = molecular target: T6, C35 positive tumors and cell lines (Homo sapiens, UniProt Q9BRT3); assay: Immunohistochemistry of formalin fixed, paraffin embedded samples; type: binding
T6 construct: from tissue
T6 sequence (Q9BRT3 1-115): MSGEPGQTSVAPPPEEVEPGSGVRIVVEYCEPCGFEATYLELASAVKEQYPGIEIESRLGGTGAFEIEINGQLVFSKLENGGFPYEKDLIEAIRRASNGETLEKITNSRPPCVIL
Description: (§4) Hybridoma cell lines IF2.4.1 and 1B3.6.1, specific for C35 polypeptides, were prepared using hybridoma technology. (Kohler et al., Nature 256:495 (1975); Kohler et al., Eur. J. Immunol. 6:511 (1976); Kohler et al., Eur. J. Immunol. 6:292 (1976); Hammerling et al., in: Monoclonal Antibodies and T-Cell Hybridomas, Elsevier, N.Y., pp. 571-681 (1981)). Briefly, hybridoma cell lines were generated using standard PEG fusion to the non-secreting myeloma cell line NS-1 (P3/NS1/1-AG4-1, ATCC #TIB-18) of splenocytes from BALB/c mice immunized with syngeneic BCA34 fibroblast tumor cells transduced to overexpress C35. Following PEG fusion to NS-1, the hybridomas were grown in methylcellulose semi-solid media. Approximately 2 weeks later, hybridoma colonies were isolated into 96 well plates and individual supernatants were tested for reactivity with C35 by ELISA, Western blot, and immunohistochemistry. Positive hybridomas colonies were subcloned and screened for reactivity twice to ensure clonality. Antibodies were isolated from hybridoma supernatants by protein G affinity purification using standard methods. […] In addition, we have developed intracellular staining flow cytometry assays for quantitative analysis using antibodies from hybridoma cell line 1F2 conjugated to Alexa-647 flourochrome. Each of these antibodies is distinct, yet both are specific for C35 protein. […]

C35 protein [9] = molecular target: T7, C35 protein (Homo sapiens, UniProt Q9BRT3); assay: Competitive binding ELISA; details: 1F2 versus 1B3
T7 sequence (Q9BRT3 1-115): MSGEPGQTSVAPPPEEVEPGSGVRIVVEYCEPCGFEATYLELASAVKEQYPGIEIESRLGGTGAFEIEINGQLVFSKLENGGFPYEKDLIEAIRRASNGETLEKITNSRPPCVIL
Description: as §4

C35 protein [10] = molecular target: T7, C35 protein; assay: ELISA and Western Blot of hybridoma antibodies; type: binding; details: ELISA and Western Blot assays
Description: as §4

[11] = untreated live cells (PI negative), Annexin V negative

## COc1cccc2c1C(=O)c1c(O)c3c(c(O)c1C2=O)C[C@@](O)(C(=O)CO)C[C@@H]3O[C@H]1C[C@H](N)[C@H](O)[C@H](C)O1 [Adriamycin, Doxorubicin]
[1]
  MTD: 10 mg/kg

## CC(=O)O[C@H]1C(=O)[C@@]2(C)[C@H]([C@H](OC(=O)c3ccccc3)[C@]3(O)C[C@H](OC(=O)[C@H](O)[C@@H](NC(=O)c4ccccc4)c4ccccc4)C(C)=C1C3(C)C)[C@]1(OC(C)=O)CO[C@@H]1C[C@@H]2O [Taxol, paclitaxel]
21MT1 tumor cells
  induction of apoptosis with exposure of C35 on the cell surface: induces apoptosis
[2]
  Maximum Tolerated Dose: No toxicity^2

B1: 1F2: mouse monoclonal anti-C35 antibody from hybridoma 1F2, gamma1 isotype, kappa light chain; VH SEQ ID NO:4, VK SEQ ID NO:6 (antibody, listed as Mus sp., V domains shown)
VH: DVQLQESGPGLVKPSQSLSLTCSVTGYSITSGYFWNWIRQFPGNKLEWMGYISYDGSNNSNPSLKNRISFTRDTSKNQFFLKFNSVTTDDSAAYYCTRGTTGFAYWGQGTLVTVSA
VL: QIVLTQSPAIMSASPGEKVTISCSASSSVSYMNWYQQKPGSSPKPWIYHTSNLASGVPARFSGSGSGTSYSLTISSMEAEDAATYYCQQYHSYPPTFGGGTKLEIK
[3]; irradiated (300 Gy) tumor cells, viable (PI negative), undergoing apoptosis (Annexin V positive)
  differential staining versus isotype control antibody: clearly differentially stained
[3]; [11]
  differential staining versus isotype control antibody: absence of differential staining
[4]
  epitope specificity: residues 53-104
[5]
  staining of approximately 8 kDa band C (in addition lacks residues 53-104): does not react
[6]
  staining of approximately 15 kDa band B (lacks C35 residues 105-115): stains
[7]; 6 ug/ml mitomycin C, 48 hours, viable (PI negative), undergoing apoptosis (Annexin V positive)
  differential staining versus isotype control antibody: clearly differentially stained
[7]; [11]
  differential staining versus isotype control antibody: absence of differential staining
[8]
  immunohistochemical staining: specifically stain formalin fixed, paraffin embedded C35 positive tumors and cell lines
C35 protein [9]
  epitope comparison by competition: bind different epitopes of the C35 protein
C35 protein [10]
  binding to recombinant C35 protein: specifically bind recombinant C35 protein
